Experimental data from the supplement of paper PMC9112550, “Optimization of the antimicrobial peptide Bac7 by deep mutational scanning” (BMC Biology, 2022).
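Note: peptides expressed intracellularly from a pBAD plasmid library in pooled LB shake-flask culture, induced with 0.3% L-arabinose, DNA abundance read by NGS, three biological replicates, DESeq2 with apeglm shrinkage.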

The sequences below were run on Escherichia coli TOP10 (assay: shrunken log2 fold change of peptide-encoding DNA abundance (4.5 h post-induction vs induction); higher = less antimicrobial activity (less host growth inhibition)). Details: time post-induction: 4.5 h; library: site-saturation at positions 5, 18, 19, 20.
With RRIRWRPPRLPRPRPRPKHAPRP the “shrunken log2 fold change” value was 0.222. In the case of RRIRWRPPRLPRPRPRPKHPPRP, the “shrunken log2 fold change” value is reported as 0.442. In the case of RRIRWRPPRLPRPRPRPKITPRP, the “shrunken log2 fold change” value is reported as 0.0282. For RRIRWRPPRLPRPRPRPKKGPRP, the “shrunken log2 fold change” value was 0.22. In the case of RRIRWRPPRLPRPRPRPKKKPRP, the “shrunken log2 fold change” value is reported as -0.139. In the case of RRIRWRPPRLPRPRPRPKMAPRP, the “shrunken log2 fold change” value is reported as 0.859. RRIRWRPPRLPRPRPRPKMKPRP was tested, and the “shrunken log2 fold change” value was 0.193. With RRIRWRPPRLPRPRPRPKMNPRP the “shrunken log2 fold change” value was 0.0146. RRIRWRPPRLPRPRPRPKNSPRP was tested, and the “shrunken log2 fold change” value was 0.318. In the case of RRIRWRPPRLPRPRPRPKNVPRP, the “shrunken log2 fold change” value is reported as -0.0641. With RRIRWRPPRLPRPRPRPKPPPRP the “shrunken log2 fold change” value was 0.821. RRIRWRPPRLPRPRPRPKRNPRP was tested, and the “shrunken log2 fold change” value was 0.432. For RRIRWRPPRLPRPRPRPKRPPRP, the “shrunken log2 fold change” value was 0.873. RRIRWRPPRLPRPRPRPKSAPRP was tested, and the “shrunken log2 fold change” value was 0.606. In the case of RRIRWRPPRLPRPRPRPKSWPRP, the “shrunken log2 fold change” value is reported as 0.389. RRIRWRPPRLPRPRPRPKWEPRP was tested, and the “shrunken log2 fold change” value was 0.0855. With RRIRWRPPRLPRPRPRPKWTPRP the “shrunken log2 fold change” value was -0.119. For RRIRWRPPRLPRPRPRPKWWPRP, the “shrunken log2 fold change” value was 0.266. RRIRWRPPRLPRPRPRPLADPRP was tested, and the “shrunken log2 fold change” value was 1.06. RRIRWRPPRLPRPRPRPLCMPRP was tested, and the “shrunken log2 fold change” value was -0.177. For RRIRWRPPRLPRPRPRPLEDPRP, the “shrunken log2 fold change” value was 0.047. In the case of RRIRWRPPRLPRPRPRPLEVPRP, the “shrunken log2 fold change” value is reported as -0.0802. For RRIRWRPPRLPRPRPRPLFTPRP, the “shrunken log2 fold change” value was -0.137. With RRIRWRPPRLPRPRPRPLGKPRP the “shrunken log2 fold change” value was 0.136. For RRIRWRPPRLPRPRPRPLGQPRP, the “shrunken log2 fold change” value was 0.0349. RRIRWRPPRLPRPRPRPLHLPRP was tested, and the “shrunken log2 fold change” value was -0.234. For RRIRWRPPRLPRPRPRPLIEPRP, the “shrunken log2 fold change” value was 0.00804. For RRIRWRPPRLPRPRPRPLINPRP, the “shrunken log2 fold change” value was -0.229. With RRIRWRPPRLPRPRPRPLIQPRP the “shrunken log2 fold change” value was 0.279. For RRIRWRPPRLPRPRPRPLISPRP, the “shrunken log2 fold change” value was -0.0451. For RRIRWRPPRLPRPRPRPLKSPRP, the “shrunken log2 fold change” value was 0.183. With RRIRWRPPRLPRPRPRPLMGPRP the “shrunken log2 fold change” value was -0.276. In the case of RRIRWRPPRLPRPRPRPLMHPRP, the “shrunken log2 fold change” value is reported as 0.0245. For RRIRWRPPRLPRPRPRPLNPPRP, the “shrunken log2 fold change” value was -0.0128. For RRIRWRPPRLPRPRPRPLNWPRP, the “shrunken log2 fold change” value was 0.101. RRIRWRPPRLPRPRPRPLNYPRP was tested, and the “shrunken log2 fold change” value was -0.546. With RRIRWRPPRLPRPRPRPLPPPRP the “shrunken log2 fold change” value was 0.686. RRIRWRPPRLPRPRPRPLPSPRP was tested, and the “shrunken log2 fold change” value was 0.515. For RRIRWRPPRLPRPRPRPLPTPRP, the “shrunken log2 fold change” value was 0.463. In the case of RRIRWRPPRLPRPRPRPLQKPRP, the “shrunken log2 fold change” value is reported as 1.73. With RRIRWRPPRLPRPRPRPLQPPRP the “shrunken log2 fold change” value was 0.54. In the case of RRIRWRPPRLPRPRPRPLQWPRP, the “shrunken log2 fold change” value is reported as 0.346. In the case of RRIRWRPPRLPRPRPRPLRIPRP, the “shrunken log2 fold change” value is reported as 0.148. RRIRWRPPRLPRPRPRPLSDPRP was tested, and the “shrunken log2 fold change” value was 0.254. In the case of RRIRWRPPRLPRPRPRPLTCPRP, the “shrunken log2 fold change” value is reported as 0.0568. With RRIRWRPPRLPRPRPRPLTIPRP the “shrunken log2 fold change” value was -0.162. With RRIRWRPPRLPRPRPRPLTNPRP the “shrunken log2 fold change” value was -0.114. With RRIRWRPPRLPRPRPRPLTPPRP the “shrunken log2 fold change” value was 0.412. With RRIRWRPPRLPRPRPRPLTWPRP the “shrunken log2 fold change” value was 0.302. In the case of RRIRWRPPRLPRPRPRPLWIPRP, the “shrunken log2 fold change” value is reported as -0.115. For RRIRWRPPRLPRPRPRPLWVPRP, the “shrunken log2 fold change” value was 0.0766. With RRIRWRPPRLPRPRPRPLYGPRP the “shrunken log2 fold change” value was -0.369. RRIRWRPPRLPRPRPRPMASPRP was tested, and the “shrunken log2 fold change” value was 0.659. RRIRWRPPRLPRPRPRPMAVPRP was tested, and the “shrunken log2 fold change” value was 0.173. For RRIRWRPPRLPRPRPRPMCMPRP, the “shrunken log2 fold change” value was 0.0952. For RRIRWRPPRLPRPRPRPMCWPRP, the “shrunken log2 fold change” value was 0.883. For RRIRWRPPRLPRPRPRPMDAPRP, the “shrunken log2 fold change” value was 0.051. With RRIRWRPPRLPRPRPRPMDNPRP the “shrunken log2 fold change” value was -0.0894. RRIRWRPPRLPRPRPRPMDSPRP was tested, and the “shrunken log2 fold change” value was -0.198. In the case of RRIRWRPPRLPRPRPRPMETPRP, the “shrunken log2 fold change” value is reported as 1.73. For RRIRWRPPRLPRPRPRPMEYPRP, the “shrunken log2 fold change” value was 0.0388. For RRIRWRPPRLPRPRPRPMFHPRP, the “shrunken log2 fold change” value was -0.271. With RRIRWRPPRLPRPRPRPMGQPRP the “shrunken log2 fold change” value was 0.0149. In the case of RRIRWRPPRLPRPRPRPMHEPRP, the “shrunken log2 fold change” value is reported as -0.0461. For RRIRWRPPRLPRPRPRPMHNPRP, the “shrunken log2 fold change” value was -0.218. For RRIRWRPPRLPRPRPRPMHQPRP, the “shrunken log2 fold change” value was 0.067. With RRIRWRPPRLPRPRPRPMIYPRP the “shrunken log2 fold change” value was -0.542. RRIRWRPPRLPRPRPRPMKNPRP was tested, and the “shrunken log2 fold change” value was 0.226. RRIRWRPPRLPRPRPRPMKPPRP was tested, and the “shrunken log2 fold change” value was -0.0125. With RRIRWRPPRLPRPRPRPMKQPRP the “shrunken log2 fold change” value was -0.208. With RRIRWRPPRLPRPRPRPMLSPRP the “shrunken log2 fold change” value was -0.0162. With RRIRWRPPRLPRPRPRPMQVPRP the “shrunken log2 fold change” value was -0.0191. In the case of RRIRWRPPRLPRPRPRPMRAPRP, the “shrunken log2 fold change” value is reported as 1.2. With RRIRWRPPRLPRPRPRPMSRPRP the “shrunken log2 fold change” value was 0.063. RRIRWRPPRLPRPRPRPMVWPRP was tested, and the “shrunken log2 fold change” value was 0.025. For RRIRWRPPRLPRPRPRPMWHPRP, the “shrunken log2 fold change” value was -0.139. RRIRWRPPRLPRPRPRPMWNPRP was tested, and the “shrunken log2 fold change” value was -0.0699. With RRIRWRPPRLPRPRPRPMWRPRP the “shrunken log2 fold change” value was 0.328. RRIRWRPPRLPRPRPRPMWSPRP was tested, and the “shrunken log2 fold change” value was 0.266. In the case of RRIRWRPPRLPRPRPRPNAFPRP, the “shrunken log2 fold change” value is reported as 0.0579. RRIRWRPPRLPRPRPRPNCLPRP was tested, and the “shrunken log2 fold change” value was 0.257. RRIRWRPPRLPRPRPRPNCMPRP was tested, and the “shrunken log2 fold change” value was -0.302. For RRIRWRPPRLPRPRPRPNDCPRP, the “shrunken log2 fold change” value was -0.0115. In the case of RRIRWRPPRLPRPRPRPNEEPRP, the “shrunken log2 fold change” value is reported as -0.0212. RRIRWRPPRLPRPRPRPNEFPRP was tested, and the “shrunken log2 fold change” value was -0.161. In the case of RRIRWRPPRLPRPRPRPNETPRP, the “shrunken log2 fold change” value is reported as 0.0101. For RRIRWRPPRLPRPRPRPNGEPRP, the “shrunken log2 fold change” value was -0.0407. With RRIRWRPPRLPRPRPRPNHFPRP the “shrunken log2 fold change” value was -0.429. For RRIRWRPPRLPRPRPRPNHTPRP, the “shrunken log2 fold change” value was -0.323. With RRIRWRPPRLPRPRPRPNKGPRP the “shrunken log2 fold change” value was -0.346. With RRIRWRPPRLPRPRPRPNKSPRP the “shrunken log2 fold change” value was 0.0866. RRIRWRPPRLPRPRPRPNLHPRP was tested, and the “shrunken log2 fold change” value was -0.269. For RRIRWRPPRLPRPRPRPNLSPRP, the “shrunken log2 fold change” value was -0.197. In the case of RRIRWRPPRLPRPRPRPNMHPRP, the “shrunken log2 fold change” value is reported as -0.00977. For RRIRWRPPRLPRPRPRPNNRPRP, the “shrunken log2 fold change” value was -0.559. For RRIRWRPPRLPRPRPRPNPTPRP, the “shrunken log2 fold change” value was -0.0571. With RRIRWRPPRLPRPRPRPNRIPRP the “shrunken log2 fold change” value was -0.115. For RRIRWRPPRLPRPRPRPNTQPRP, the “shrunken log2 fold change” value was 0.448. RRIRWRPPRLPRPRPRPNVFPRP was tested, and the “shrunken log2 fold change” value was -0.304. With RRIRWRPPRLPRPRPRPNVMPRP the “shrunken log2 fold change” value was -0.00962. In the case of RRIRWRPPRLPRPRPRPNWIPRP, the “shrunken log2 fold change” value is reported as 0.149. With RRIRWRPPRLPRPRPRPNWNPRP the “shrunken log2 fold change” value was -0.0303. In the case of RRIRWRPPRLPRPRPRPNWVPRP, the “shrunken log2 fold change” value is reported as 0.0816. In the case of RRIRWRPPRLPRPRPRPPCEPRP, the “shrunken log2 fold change” value is reported as 0.379. In the case of RRIRWRPPRLPRPRPRPPCLPRP, the “shrunken log2 fold change” value is reported as 0.186. RRIRWRPPRLPRPRPRPPDYPRP was tested, and the “shrunken log2 fold change” value was 0.184. RRIRWRPPRLPRPRPRPPEEPRP was tested, and the “shrunken log2 fold change” value was 1.26. RRIRWRPPRLPRPRPRPPEFPRP was tested, and the “shrunken log2 fold change” value was 0.094. RRIRWRPPRLPRPRPRPPFTPRP was tested, and the “shrunken log2 fold change” value was 0.21.
